Results from patent US20200369765A1 (INNATE PHARMA, published 2020).
Each block holds one binder with its values, some of them ahead of it.

Assays:
[1] = target: T1, Human Siglec-9 mutant M6 (human, UniProt Q9Y336 18-463); test: flow cytometry, HEK293T transfectants; '-' indicates full loss of binding
T1 construct: Expressed on HEK293T cells; also called Mutant 6

[2] = target: T2, Human Siglec-9 (human, UniProt Q9Y336 18-463); test: flow cytometry, CHO Siglec-9 cells, mean n = 2
T2 construct: On transfected CHO cells; also on YTS and KHYG-1 transfectants, primary NK cells and moDC; also called huSiglec-9; CD329
Procedure: Binding of humanized antibodies was tested on CHO cells transfected with human Siglec-9, in a titration experiment by flow cytometry. Cells were incubated 90 minutes at 37° C. in Staining Buffer (SB) with primary antibodies at 10 ug/ml and a series of dilution of 1:10. They were washed three times with SB, then incubated 30 minutes with a goat F(ab′)² Anti-human IgG (Fc) PE. EC₅₀ values (μg/ml) for Siglec-9 expressing cells are shown below.
Target sequence in this assay (Q9Y336 18-463): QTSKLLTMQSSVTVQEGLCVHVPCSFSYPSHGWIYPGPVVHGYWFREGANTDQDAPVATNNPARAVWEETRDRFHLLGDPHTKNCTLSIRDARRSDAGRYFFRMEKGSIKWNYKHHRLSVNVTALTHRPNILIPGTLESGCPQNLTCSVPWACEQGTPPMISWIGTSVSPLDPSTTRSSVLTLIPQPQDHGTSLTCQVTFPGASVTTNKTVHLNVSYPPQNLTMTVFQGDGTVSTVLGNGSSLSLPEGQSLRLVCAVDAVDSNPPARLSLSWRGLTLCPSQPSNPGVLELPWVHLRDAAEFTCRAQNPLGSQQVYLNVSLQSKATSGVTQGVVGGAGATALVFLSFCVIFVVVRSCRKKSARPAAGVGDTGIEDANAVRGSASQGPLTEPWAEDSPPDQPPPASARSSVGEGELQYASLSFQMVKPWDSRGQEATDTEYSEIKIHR

[3] = target: T2, Human Siglec-9; test: flow cytometry titration on neuraminidase-treated moDCs, goat F(ab')2 anti-human IgG (Fc) PE; table under the right panel
Procedure: moDC were desialylated for 2 hours with 25 mU neuraminidase (Roche Diagnostics).
Binding on moDCs and neuraminidase treated moDCs was tested in a titration experiment by flow cytometry. Cells were incubated 1h in Staining Buffer (SB) with primary antibodies at 10 ug/ml and a series of dilution of 1:10. They were washed two times with SB, then incubated 30 min with a Goat F(ab′)² Anti-Human IgG (Fc) PE (Jackson ImmunoResearch), and washed twice with SB.

[4] = target: T3, Siglec-7 Fc protein (human); test: ELISA, blocking: Siglec-7 Fc captured on protein A, mAb dilution series, then biotinylated polymer Sia2 (6'-Sialyllactose-PAA-biotin), streptavidin-peroxidase (top panel)
T3 construct: Produced in CHO cells; also called human Siglec-7 Fc
T3 sequence (chain, as listed by the source limits assumed): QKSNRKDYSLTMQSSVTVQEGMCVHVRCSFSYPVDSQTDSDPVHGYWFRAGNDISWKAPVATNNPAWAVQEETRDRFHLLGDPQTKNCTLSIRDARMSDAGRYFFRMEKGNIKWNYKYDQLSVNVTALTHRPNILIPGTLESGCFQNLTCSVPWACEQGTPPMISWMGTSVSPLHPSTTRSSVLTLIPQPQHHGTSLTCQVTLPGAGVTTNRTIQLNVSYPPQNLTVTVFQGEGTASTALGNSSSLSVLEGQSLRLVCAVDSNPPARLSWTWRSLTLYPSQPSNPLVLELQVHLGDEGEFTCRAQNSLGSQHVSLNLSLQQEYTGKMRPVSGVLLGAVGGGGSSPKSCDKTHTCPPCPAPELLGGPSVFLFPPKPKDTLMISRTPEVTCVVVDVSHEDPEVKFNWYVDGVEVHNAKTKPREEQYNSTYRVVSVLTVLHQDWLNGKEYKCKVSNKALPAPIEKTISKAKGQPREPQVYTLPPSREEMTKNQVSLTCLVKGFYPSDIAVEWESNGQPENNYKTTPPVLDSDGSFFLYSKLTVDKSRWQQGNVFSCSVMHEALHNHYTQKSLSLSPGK
Procedure: (§1) Blocking of the interaction between Siglec-7 and -9 and sialylated ligands by anti Siglec-7/9 antibodies was tested on ELISA assays. Siglec proteins were Siglec-7 human Fc and Siglec-9 Human Fc recombinant proteins, and ligands were biotinylated polymers with sialylated trisaccharides (Neu5Aca2-3Galb1-4GcNAcb-PAA-biotin Glycotech #01-077 referred to as “Sia1” and 6′-Sialyllactose-PAA-biotin Glycotech #01-039 (referred to as “Sia2”). Briefly, Protein A was coated on ELISA plates over night at 4° C. After 3 washes and saturation, Siglec-7 Fc and Siglec-9 Fc were added at 0.8 μg/well at RT for 1H30. After 3 washes, mAbs were added at 20 ug/ml and a series of dilution of 1:5. After 3 washes, biotinylated sialylated polymers were added for 3 hours at room temperature. After 3 washes, Streptavidin-Peroxidase (Beckman) was added at 1:1000. […] The absorbance was read at 450 nm.

[5] = target: T4, Human Siglec-9 mutant M10 (human, UniProt Q9Y336 18-463); test: flow cytometry, HEK293T transfectants; '-' indicates full loss of binding
T4 construct: Expressed on HEK293T cells; also called Mutant 10
T4 sequence (Q9Y336 other isoform, or with tags, fused parts or gaps mutant): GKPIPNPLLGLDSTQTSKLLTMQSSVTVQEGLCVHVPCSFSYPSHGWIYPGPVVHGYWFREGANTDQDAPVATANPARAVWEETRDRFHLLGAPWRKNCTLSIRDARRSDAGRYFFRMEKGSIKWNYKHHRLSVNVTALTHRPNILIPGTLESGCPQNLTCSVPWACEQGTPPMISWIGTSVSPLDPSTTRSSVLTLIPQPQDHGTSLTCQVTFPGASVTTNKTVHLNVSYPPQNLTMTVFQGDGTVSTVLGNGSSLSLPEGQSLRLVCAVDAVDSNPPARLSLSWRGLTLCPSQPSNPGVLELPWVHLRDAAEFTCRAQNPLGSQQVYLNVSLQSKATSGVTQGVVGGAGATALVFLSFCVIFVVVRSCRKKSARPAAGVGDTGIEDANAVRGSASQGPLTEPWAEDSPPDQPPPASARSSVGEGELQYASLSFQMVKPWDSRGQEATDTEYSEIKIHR

[6] = target: T5, Human Siglec-9 mutant M16 (human, UniProt Q9Y336 18-463); test: as above
T5 construct: Expressed on HEK293T cells; also called Mutant 16
T5 sequence (Q9Y336 other isoform, or with tags, fused parts or gaps mutant): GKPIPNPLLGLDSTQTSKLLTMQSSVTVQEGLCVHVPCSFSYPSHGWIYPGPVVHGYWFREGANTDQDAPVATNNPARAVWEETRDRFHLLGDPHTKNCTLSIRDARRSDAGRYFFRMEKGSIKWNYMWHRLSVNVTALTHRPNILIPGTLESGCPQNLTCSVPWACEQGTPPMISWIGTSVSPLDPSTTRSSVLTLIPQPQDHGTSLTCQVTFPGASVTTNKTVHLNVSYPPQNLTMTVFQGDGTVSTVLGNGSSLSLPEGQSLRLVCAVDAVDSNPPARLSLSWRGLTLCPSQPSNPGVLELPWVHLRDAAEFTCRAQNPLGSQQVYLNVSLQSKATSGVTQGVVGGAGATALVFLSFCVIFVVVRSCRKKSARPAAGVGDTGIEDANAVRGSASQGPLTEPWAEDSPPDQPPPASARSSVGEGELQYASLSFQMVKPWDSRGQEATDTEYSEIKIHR

[7] = target: T6, Human Siglec-9 mutant M8 (human, UniProt Q9Y336 18-463); test: as above
T6 construct: Expressed on HEK293T cells; also called Mutant 8
T6 sequence (Q9Y336 other isoform, or with tags, fused parts or gaps mutant): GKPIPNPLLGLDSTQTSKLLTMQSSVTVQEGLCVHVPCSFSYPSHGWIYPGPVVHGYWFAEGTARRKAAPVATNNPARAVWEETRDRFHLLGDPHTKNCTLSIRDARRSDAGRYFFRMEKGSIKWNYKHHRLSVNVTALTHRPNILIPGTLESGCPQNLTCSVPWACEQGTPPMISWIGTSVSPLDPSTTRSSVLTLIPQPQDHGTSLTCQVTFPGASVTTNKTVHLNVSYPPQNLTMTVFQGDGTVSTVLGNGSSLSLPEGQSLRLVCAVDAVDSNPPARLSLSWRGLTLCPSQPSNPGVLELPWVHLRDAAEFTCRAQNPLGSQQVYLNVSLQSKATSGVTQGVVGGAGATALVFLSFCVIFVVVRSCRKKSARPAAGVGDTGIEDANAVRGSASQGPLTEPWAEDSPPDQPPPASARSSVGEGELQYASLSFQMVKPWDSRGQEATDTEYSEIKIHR

[8] = target: T3, Siglec-7 Fc protein; test: ELISA, blocking: Siglec-7 Fc captured on protein A, mAb dilution series, then biotinylated polymer Sia2, streptavidin-peroxidase (bottom panel); partial inhibition
Procedure: as §1

[9] = target: T7, Siglec-9 Fc protein (human); test: ELISA, blocking: Siglec-9 Fc captured on protein A, mAb dilution series, then biotinylated polymer Sia1, streptavidin-peroxidase (top panel); weak partial inhibition
T7 construct: Produced in CHO cells; also called human Siglec-9 Fc
T7 sequence (chain, as listed by the source limits assumed): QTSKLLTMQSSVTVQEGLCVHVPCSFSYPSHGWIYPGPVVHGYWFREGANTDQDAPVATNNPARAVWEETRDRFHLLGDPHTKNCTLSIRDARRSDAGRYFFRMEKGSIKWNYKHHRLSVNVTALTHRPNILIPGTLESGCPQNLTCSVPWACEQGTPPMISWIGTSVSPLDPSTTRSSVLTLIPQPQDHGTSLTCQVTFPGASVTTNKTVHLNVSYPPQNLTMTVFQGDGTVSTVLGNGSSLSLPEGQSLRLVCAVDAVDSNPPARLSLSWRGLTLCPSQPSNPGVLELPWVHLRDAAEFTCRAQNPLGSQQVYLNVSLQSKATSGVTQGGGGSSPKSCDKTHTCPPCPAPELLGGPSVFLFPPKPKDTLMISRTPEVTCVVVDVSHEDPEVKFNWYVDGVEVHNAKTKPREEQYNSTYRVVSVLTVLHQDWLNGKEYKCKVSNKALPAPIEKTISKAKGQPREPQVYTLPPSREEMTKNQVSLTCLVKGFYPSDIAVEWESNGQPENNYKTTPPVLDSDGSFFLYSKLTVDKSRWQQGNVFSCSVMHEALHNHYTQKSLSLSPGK
Procedure: as §1

[10] = target: T7, Siglec-9 Fc protein; test: ELISA, blocking: Siglec-9 Fc captured on protein A, mAb dilution series, then biotinylated polymer Sia2, streptavidin-peroxidase (bottom panel)
Procedure: as §1

T1 sequence (Q9Y336 other isoform, or with tags, fused parts or gaps mutant): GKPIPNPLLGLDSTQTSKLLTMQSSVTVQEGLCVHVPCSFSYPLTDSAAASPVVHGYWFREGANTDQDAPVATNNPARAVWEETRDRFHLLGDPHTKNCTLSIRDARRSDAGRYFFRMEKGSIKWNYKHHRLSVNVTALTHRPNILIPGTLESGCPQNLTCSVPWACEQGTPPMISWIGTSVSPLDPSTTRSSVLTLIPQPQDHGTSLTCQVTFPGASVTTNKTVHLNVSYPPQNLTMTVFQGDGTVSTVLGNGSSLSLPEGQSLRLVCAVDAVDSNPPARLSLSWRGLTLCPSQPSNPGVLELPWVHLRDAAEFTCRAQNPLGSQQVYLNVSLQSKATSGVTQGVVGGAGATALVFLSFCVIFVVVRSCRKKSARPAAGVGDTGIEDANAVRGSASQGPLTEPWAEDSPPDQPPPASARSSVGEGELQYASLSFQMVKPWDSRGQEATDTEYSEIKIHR

binding result [1]: no binding
EC50 [2]: 0.036 µg/mL
EC50 [3]: 0.0925 µg/mL
B1: mAbD (antibody, human IgG1, V domains shown)
VH: QIQLVQSGPELKKPGETVKISCKASGYTFTDYSMHWVKQAPGKGLKWMGWIITETGEPTYADDFRGRFAFSLETSANTAYLQINNLKNEDTATYFCARDFDGYWGQGTTLTVSS
VL: DILMTQSPASLSASVGETVTITCRASENIYSYLAWYQQKRGKSPQFLVYNAKTLTEGVPSRFRGSGSGTQFSLKINSLQPEDFGTYYCQHHYGFPWTFGGGTKLEIK

binding result [4]: binds
B2: mAb6 (antibody, human IgG1, V domains shown)
VH: EIQLQQSGPELEKPGASVKISCKASGYSFSDYNMNWVKQSNGKSLEWIGNIDPYYGATSYNQRFKGKATLTVDKSSSTAYMQLKSLTSEDSAVYYCARGDSLFAYWGQGTLVTVSA
VL: DIVMTQSQEFMSTSLGDRVSVTCKASQNVGTNVAWYQQKPGQSPKALLYSASSRYSGVPDRFTGSGSGTDFTLTINNMQSEDLAEYFCQQYITYPYTFGGGTKLEIK

binding result [5]: no binding
B3: mAbE (antibody, human IgG1, V domains shown)
VH: DVQLVESGGGLVQPGGSRKLSCAASGFTFSTFGMHWVRQAPEKGLEWVAYISSGSNAIYYADTVKGRFTISRDNPKNTLFLQMTSLRSEDTAMYYCASPGYGAWFAYWGQGTLVTVSA
VL: ENVLTQSPAIMSASPGEKVTMTCRASSSVSSAYLHWYQQKSGASPKLWIYSTSNLASGVPARFSGSGSGTSYSLTISSVEAEDAATYYCQQYSAYPYTFGGGTKLEIK

binding result [5]: no binding
B4: mAbF (antibody, human IgG1, V domains shown)
VH: QVQLQQSGPEVVRPGVSVKISCKGSGYTFTDYSMHWVKQSHAKSLEWIGVISTYNGNTNYNQKFKGKATMTVDKSSSTAYMELARLTSEDSAIYYCARRGYYGSSSWFGYWGQGTLVTVSA
VL: DIVMTQSQKFMSTSVGDRVSVTCKASQNVGTDVAWYQQKPGQSPEALIYSASYRYSGVPDRFTGSGSGADFTLTISNVQSEDLAEYFCQQYNSFPYTFGGGTKLEIK

binding result [6]: no binding
EC50 [2]: 0.03 µg/mL
EC50 [3]: 0.0282 µg/mL
B5: mAbA (antibody, human IgG1, V domains shown)
VH: QVQLQQPGAELVKPGSPVKLSCKASYFTFTSYWMHWVRQRPGQGLEWIGEINPSNGHTNYNEKFESKATLTVDRSSSTAYMQLSSLTSEDSAVFYCANGVESYDFDDALDYWGQGTSVTVSS
VL: DIQMTQTTSSLSASLGDRVTISCRASQDINNYLNWYQQKPDGTIKLLIYYTSRLHSGVPSRFSGSGSGTDYSLTINNLEQEDIATYFCQQGNTLPFTFGGGTKLEIK

binding result [6]: no binding
B6: mAbB (antibody, human IgG1, V domains shown)
VH: QVQLQQPGAELVKPGASVKLSCKASVYTFTSYWMHWVKQRPGQGLEWIGEINPSNGHTNYNEKFKTKAKLTVDKSSSTAYMQLSSLTSEDSAVYFCANGVETYDFDDAMDYWGQGTSVTVSS
VL: DIQMTQTTSSLSASLGDRVTISCRASQDINNYLNWYQQKPDGTVKLLIYFTSRLHSGVPSRFSGSGSGTDYSLTISNLEQEDIATYFCQQGDTFPFTFGGGTKLEIK

binding result [7]: no binding
EC50 [3]: 0.0274 µg/mL
B7: mAbC (antibody, human IgG1, V domains shown)
VH: QIQLVQSGPELKKPGETVKISCKASGYTFTNYEMNWVKEAPGKGLKWMGWINTYTGESTYADDFKGRFAFSLETSASTVYLQINNLKDEDVATYFCVRDDYGRSYGFAYWGQGTLVTVSA
VL: NIVLTQSPASLTVSLGQRANISCRASESVDSYGNSFMHWYQQKPGQPPKLLIYLASKLESGVPARFSGSGSRTDFTLTIDPVETDDAATYYCHQNNEDPPWTFGGGTKLEIK

IC50 (read off the curve) [8]: ~4 µg/mL
IC50 (read off the curve) [9]: ~2 µg/mL
binding result [5]: no binding
IC50 (read off the curve) [10]: ~1 µg/mL
B8: mAb1 (antibody, human IgG1, V domains shown)
VH: DVQLQESGPGLVKPSQSLSLTCTVTGYSITGGFAWNWIRQFPGNTLEWMGYIGYGGSTSYNPSLNSRISITRDTSKNHFFLQFNSVTTDDSATYYCARGDYLFAYWGQGTLVTVSA
VL: DIVMTQSHKFMSTSVGDRVSITCKASQDVNTAVAWYQQKPGQSPKLLIYSASYRYTGVPDRFTGSGSGTDFTFTISSVQAEDLAVYYCQQHYSTPRTFGGGTKLEIK

binding result [5]: no binding
B9: mAb3 (antibody, human IgG1, V domains shown)
VH: EVQLLETGPGLVKPSQSLSLTCTVTGYSITGGFAWNWIRQFPGNTLEWMGYIGYGGSTSYNPSLNSRISITRDTSKNHFFLQFNSVTTEDSATYYCARGDYLFAYWGQGTLVTVSA
VL: DILMTQSPASLSASVGETVSITCRASGNIHNYLAWYLQRQGKSPQLLVYNAKTLADGVPSRFSGTGSGTQFSLKINSLQPEDFGSYYCQHFWSTPRTFGGGTKLEIK

IC50 (read off the curve) [8]: ~4 µg/mL
IC50 (read off the curve) [9]: ~2 µg/mL
binding result [5]: no binding
IC50 (read off the curve) [10]: ~1 µg/mL
B10: mAb2 (antibody, human IgG1, V domains shown)
VH: EVQLQESGPGLVKPSQSLSLTCTVTGYSITGGFAWNWIRQFPGNTLEWMGYIGYGGSTSYNPSLNSRISITRDTSKNHFFLQFNSVTTEDSATYYCARGDYLFAYWGQGTLVTVSA
VL: DIVMTQSHKFMSTSVGDRVSITCKASQDVNTAVAWYQQKPGQSPKLLIYSASYRYTGVPDRFTGSGSGTDFTFTISSVQAEDLAVYYCQQHYSTPRTFGGGTKLEIK
